Laboratory results as given in paper PMC4758025, “Critical Assessment of Protein Cross-Linking and Molecular Docking: An Updated Model for the Interaction Between Photosystem II and Psb27” (Frontiers in Plant Science, 2016).

B1: Im7-tagged mature D1 C-terminus (mD1, residues 295-344) (domain or fragment)
chain: not shown
notes: D1 (PsbA) of photosystem II, mature C-terminus, residues 295-344; source: cell-free expression (RTS100 system), purified on the chip
B2: Im7-tagged C-terminal lumenal domain of D2 (residues 294-352) (domain or fragment)
chain: not shown
notes: D2 (PsbD) of photosystem II, C-terminus, residues 294-352; source: cell-free expression (RTS100 system), purified on the chip
B3: Im7-tagged lumenal domain of CP43 (residues 293-424) (domain or fragment)
chain: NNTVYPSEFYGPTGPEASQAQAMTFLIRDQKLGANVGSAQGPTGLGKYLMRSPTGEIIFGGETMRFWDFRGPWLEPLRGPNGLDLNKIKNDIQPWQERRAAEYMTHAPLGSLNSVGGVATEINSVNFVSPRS
modifications: Im7 fusion carrier omitted. Printed 293-424 taken as PDB 3ARC numbering, which is UniProt +12: printed K381, K339 and D383 then correspond to entry K369, K327 and D371, and the range spans the …
B4: recombinant Psb27 (natural protein, T. elongatus, UniProt Q8DG60 22-134, looked up)
chain: CANVPTGLTGNFREDTLALISSLREAIALPENDPNKKAAQAEARKKLNDFFALYRRDDSLRSLSSFMTMQTALNSLAGHYSSYPNRPLPEKLKARLEQEFKQVELALDREAKS
notes: by the printed primers the natural stretch begins ANVPT and ends REAKS; No lipid modification, as the N-terminal cysteine is missing; the His tag is inferred; source: E. coli Overexpress C43, purified (IMAC, ResourceS ion exchange)
B5: Psb27 in the monomeric Psb27-PSII intermediate complex (natural protein, T. elongatus (endogenous), UniProt Q8DG60 22-134, looked up)
chain: B4 chain
modifications: N-terminal lipid modification
notes: Psb27 of T. elongatus (tll2462), as it stands in the isolated Psb27-PSII complex; source: endogenous, Psb27-PSII complex isolated from wild-type T. elongatus

Tests used:
Conditions in all cases: both partners purified
[1] = target: B4; test: SPR; Biacore 3000, CM5 chip; Im7 fusion proteins captured on covalently bound DNase E7; Psb27 injected from 50 μM to 100 nM for 60 s in MBS-EP (20 mM MES, 150 mM NaCl, 3 mM EDTA, 0.05% Surfactant P20, pH 6.5), 30 μl/min, 298 K; steady-state responses fitted to a one-site binding isotherm
[2] = target: T1, Im7-tagged lumenal domain of CP47 (residues 271-446) (UniProt Q8DIQ1 271-446); test: as above
T1 construct: CP47 (PsbB) of photosystem II, lumenal domain, residues 271-446; also called CP47 domain; source: cell-free expression (RTS100 system), purified on the chip

[3] = target: T2, CP43 in the monomeric Psb27-PSII intermediate complex (T. elongatus (endogenous), UniProt Q8DIF8 1-461); test: cross-linking; isolated monomeric Psb27-PSII complex without PsbO, PsbU and PsbV (2.4 μM) with a 1:1 mixture of BS3-H12/D12 (5 mM), 30 min on ice, 20 mM MES/NaOH, 10 mM CaCl2, 0.03% dodecyl-β-D-maltoside, pH 6.5; trypsin, LC-ESI-MS/MS, StavroX; found in light and heavy form
T2 construct: CP43 (PsbC) of photosystem II of T. elongatus; source: endogenous, Psb27-PSII complex isolated from wild-type T. elongatus

T1 sequence (Q8DIQ1 271-446): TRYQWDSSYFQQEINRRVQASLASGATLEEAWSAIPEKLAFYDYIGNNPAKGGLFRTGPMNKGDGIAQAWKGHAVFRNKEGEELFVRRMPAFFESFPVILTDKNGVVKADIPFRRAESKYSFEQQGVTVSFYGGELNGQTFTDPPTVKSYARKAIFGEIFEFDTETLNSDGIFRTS

| Kd [1] [µM] | Binder | also measured |
| --- | --- | --- |
| 34 | B1 | – |
| ~100 | B2 | – |
| 21 | B3 | – |
| – | B4 | Kd [2]: ~100 µM |
| – | B5 | binding result [3]: binds |
